# B1: murine CD6-Fc (Fc fusion, mouse, UniProt Q61003 17-398, looked up)
# chain: GLPSPAPSGQHKNGTIPNMTLDLEERLGIRLVNGSSRCSGSVKVLLESWEPVCAAHWNRAATEAVCKALNCGDSGKVTYLMPPTSELPPGATSGNTSSAGNTTWARAPTERCRGANWQFCKVQDQECSSDRRLVWVTCAENQAVRLVDGSSRCAGRVEMLEHGEWGTVCDDTWDLQDAHVVCKQLKCGWAVKALAGLHFTPGQGPIHRDQVNCSGTEAYLWDCPGRPGDQYCGHKEDAGVVCSEHQSWRLTGGIDSCEGQVEVYFRGVWSTVCDSEWYPSEAKVLCRSLGCGSAVARPRGLPHSLDGRMYYSCKGQEPALSTCSWRFNNSNLCSQSRAARVVCSGSQRHLNLSTSEVPSRVPVTIESSVPVSVKDKDSQGLT
# notes: CD6, mouse; source: bought: R&D Systems
# Target: T1, murine CD166(1-527)-His (mouse, UniProt Q61490 28-527)
# T1 construct: signal peptide in the construct; ALCAM (CD166), mouse, residues 1-527 as printed; also called murine ALCAM; source: bought: Sino Biological, purified
# T1 sequence (looked up): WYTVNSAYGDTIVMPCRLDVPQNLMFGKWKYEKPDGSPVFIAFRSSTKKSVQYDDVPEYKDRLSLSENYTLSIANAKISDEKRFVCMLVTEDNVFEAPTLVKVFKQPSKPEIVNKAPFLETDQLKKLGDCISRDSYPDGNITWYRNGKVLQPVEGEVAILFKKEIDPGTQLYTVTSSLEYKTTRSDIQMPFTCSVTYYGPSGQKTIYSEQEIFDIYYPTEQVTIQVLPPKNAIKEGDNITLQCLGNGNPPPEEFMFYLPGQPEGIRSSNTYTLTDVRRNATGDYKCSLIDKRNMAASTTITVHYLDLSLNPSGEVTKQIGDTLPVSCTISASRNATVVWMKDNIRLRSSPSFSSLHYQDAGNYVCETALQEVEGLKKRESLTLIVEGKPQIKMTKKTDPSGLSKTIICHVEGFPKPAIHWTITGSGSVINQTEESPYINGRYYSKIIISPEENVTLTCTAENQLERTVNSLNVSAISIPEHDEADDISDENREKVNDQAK
# Experiment: ELISA; competition ELISA: plates coated overnight at 4°C with murine CD166(1-527)-His (5 μg/ml), blocked with PBS with 2% milk powder; 2 h at RT with a fixed amount of murine CD6-Fc (1 μg/ml) and I/F8-Fc or KSF-Fc in PBS (4 to 0.25 μg/ml); bound CD6-Fc detected with HRP-coupled anti-human IgG
# Conditions: both partners purified
binder,measurement,value
B1,binding result,binds

# From PMC6473055, “ALCAM Mediates DC Migration Through Afferent Lymphatics and Promotes Allospecific Immune Reactions” (Frontiers in Immunology, 2019)
